Laboratory results taken from patent US20060115475A1 (published 2006).
Substitutions are numbered along the chain they refer to. Numbers in names are those of the source.

B1: human-adapted C1068 variant mAb HBV6 (Vκ CDR1 H30S in the HV1/LV1 background) (antibody, V domains shown)
VH: QVQLVQSGAEVKKPGASVKVSCKASGYTFTTYWIHWVRQAPGQRLEWMGEINPNNGRINYNEKFKTRVTITRDTSASTAYMELSSLRSEDTAVYYCARVGVMITTFPYWGQGTLVTVSS
VL: DIQMTQSPSSLSASVGDRVTITCRASGNISNYLAWYQQKPGKAPKLLIYNAKTLADGVPSRFSGSGSGTDFTLTISSLQPEDFATYYCQHFWSTPFTFGQGTKLEIK
notes: Made in the HV1/LV1 background; not shown: human kappa light chain constant region
B2: human-adapted C1068 variant mAb HBV1 (Vh CDR1 I34M in the HV1/LV1 background) (antibody, V domains shown)
VH: B1 VH with I34M
VL: B1 VL with S30H
notes: Made in the HV1/LV1 background and generated 'as described above'; not shown: human kappa light chain constant region
B3: human-adapted C1068 variant mAb HBV2 (Vh CDR2 Y60G in the HV1/LV1 background) (antibody, V domains shown)
VH: B1 VH with Y60G
VL: B1 VL with S30H
notes: as for B1
B4: human-adapted C1068 variant mAb HBV5 (Vh CDR3 M102I in the HV1/LV1 background) (antibody, V domains shown)
VH: B1 VH with M102I
VL: B1 VL with S30H
notes: as for B1
B5: human-adapted C1068 variant mAb HBV4 (Vh CDR2 F64G in the HV1/LV1 background) (antibody, V domains shown)
VH: B1 VH with F64G
VL: B1 VL with S30H
notes: as for B1
B6: human-adapted C1068 variant mAb HBV3 (Vh CDR2 N61A in the HV1/LV1 background) (antibody, V domains shown)
VH: B1 VH with N61A
VL: B1 VL with S30H
notes: as for B1
B7: murine anti-hTLR3 antagonist mAb 1068 (antibody, mouse IgG1, V domains shown)
VH: QVQLQQPGAELVQPGTSVRLSCKASGYIFTTYWIHWVKQRPGQGLEWIGEINPNNGRINYNEKFKTKATLTVDKSSSTAYMQLSSLTSEDSAVYYCTRVGVMITTFPYWGQGTLVTVSA
VL: DIQMTQSPASLSASVGETVTITCRASGNIHNYLAWYQQKQGKSPQLLVYNAKTLADGVPSRFSGSESGTQYSLKINSLQPEDFGSYYCQHFWSTPFTFGSGTKLELK
notes: also called C1068; mAb C1068
B8: human-adapted anti-TLR3 mAb HV5/LV1 (antibody, human IgG4, V domains shown)
VH: B1 VH with P41T, R44G, I70M, D73N, A76I
VL: B1 VL with S30H
notes: Human IgG4 (S228P, F234A, L235A), kappa; not shown: human kappa light chain constant region
B9: human-adapted anti-TLR3 mAb HV5/LV5 (antibody, human IgG4, V domains shown)
VH: B1 VH with P41T, R44G, I70M, D73N, A76I
VL: B1 VL with S30H, A43V, F83V, Q100G, L104V
notes: as for B8
B10: human-adapted anti-TLR3 mAb HV4/LV3 (antibody, human IgG4, V domains shown)
VH: B1 VH with R44G, I70M, A76I, S85R, E89D
VL: B1 VL with S30H, L46R, D70E
notes: as for B8
B11: human-adapted anti-TLR3 mAb HV1/LV7 (antibody, human IgG4, V domains shown)
VH: B1 VH
VL: B1 VL with S30H, Y36F, L46S
notes: as for B8
B12: human-adapted anti-TLR3 mAb HV1/LV5 (antibody, human IgG4, V domains shown)
VH: B1 VH
VL: B1 VL with S30H, A43V, F83V, Q100G, L104V
notes: as for B8
B13: human-adapted anti-TLR3 mAb HV5/LV3 (antibody, human IgG4, V domains shown)
VH: B1 VH with P41T, R44G, I70M, D73N, A76I
VL: B1 VL with S30H, L46R, D70E
notes: as for B8
B14: human-adapted anti-TLR3 mAb HV4/LV1 (antibody, human IgG4, V domains shown)
VH: B1 VH with R44G, I70M, A76I, S85R, E89D
VL: B1 VL with S30H
notes: as for B8
B15: human-adapted anti-TLR3 mAb HV7/LV7 (antibody, human IgG4, V domains shown)
VH: B1 VH with A16S, Y27G, T30S, R44G, R72A, T74E, A76T, Q111R
VL: B1 VL with S30H, Y36F, L46S
notes: as for B8
B16: human-adapted anti-TLR3 mAb HV4/LV5 (antibody, human IgG4, V domains shown)
VH: B1 VH with R44G, I70M, A76I, S85R, E89D
VL: B1 VL with S30H, A43V, F83V, Q100G, L104V
notes: as for B8
B17: human-adapted anti-TLR3 mAb HV1/LV3 (antibody, human IgG4, V domains shown)
VH: B1 VH
VL: B1 VL with S30H, L46R, D70E
notes: as for B8
B18: human-adapted anti-TLR3 mAb HV7/LV5 (antibody, human IgG4, V domains shown)
VH: B1 VH with A16S, Y27G, T30S, R44G, R72A, T74E, A76T, Q111R
VL: B1 VL with S30H, A43V, F83V, Q100G, L104V
notes: as for B8
B19: human-adapted anti-TLR3 mAb HV5/LV7 (antibody, human IgG4, V domains shown)
VH: B1 VH with P41T, R44G, I70M, D73N, A76I
VL: B1 VL with S30H, Y36F, L46S
notes: as for B8
B20: human-adapted anti-TLR3 mAb HV7/LV1 (antibody, human IgG4, V domains shown)
VH: B1 VH with A16S, Y27G, T30S, R44G, R72A, T74E, A76T, Q111R
VL: B1 VL with S30H
notes: as for B8
B21: human-adapted anti-TLR3 mAb HV4/LV7 (antibody, human IgG4, V domains shown)
VH: B1 VH with R44G, I70M, A76I, S85R, E89D
VL: B1 VL with S30H, Y36F, L46S
notes: as for B8
B22: human-adapted anti-TLR3 mAb HV1/LV1 (antibody, human IgG4, V domains shown)
VH: B1 VH
VL: B1 VL with S30H
notes: as for B8

Biological target: T1, soluble human TLR3 extracellular domain (human, UniProt O15455 24-703)
T1 construct: also called hTLR3 extracellular domain; extracellular domain of human TLR3
Assay: ELISA, TLR3 binding assay

Binder | EC50 [µg/mL]
B1 | > 1

Biological target: T1, soluble human TLR3 extracellular domain
Assay: ELISA, TLR3 binding assay as in Example 20

Binder | EC50 [µg/mL]
B2 | 0.017
B3 | 0.0146
B4 | 0.0747
B5 | 0.0409
B6 | 0.048

Biological target: T1, soluble human TLR3 extracellular domain
Assay: ELISA, TLR3 binding assay as in Example 20
Remark: another data set of the same source

Binder | EC50 [µg/mL]
B1 | 1.22

Biological target: T1, soluble human TLR3 extracellular domain
Assay: ELISA, coated soluble hTLR3 extracellular domain, anti-mouse IgG-HRP

Binder | EC50 [µg/mL]
B7 | 0.008

Biological target: T1, soluble human TLR3 extracellular domain
Assay: Biacore 2000, mAb captured on protein A, TLR3 in solution, 25 C, 1:1 model
Protocol: (§1) Measurement of binding affinity by Biacore was performed by mAb capture and TLR3 capture techniques. MAb capture analysis was performed at 25° C. using a Biacore 2000 biosensor equipped with a CM5 chip with surfaces modified with protein A (6,000 RU) at 25° C. by standard amine coupling. Antibody was diluted to 30 nM and captured for one minute on different protein A surfaces. TLR3 was injected at 0, 0.1, 0.3, 1.0, 3.0, and 9.0 nM and associations and dissociations were monitored for 5 minutes. The protein A modified surfaces were regenerated using two 6-second pulses 100 mM phosphoric acid. Available binding data sets were fit to a 1:1 interaction model (CLAMP™). The rate constants and their ratio (KD=kd/kₐ) and the error of fit carried over the estimate of the apparent equilibrium constants were calculated.

Binder | Kd [nM]
B8 | 2
B9 | 1.1
B10 | 0.5
B11 | 7.2

Biological target: T1, soluble human TLR3 extracellular domain
Assay: ELISA, coated soluble hTLR3 extracellular domain, HRP-labeled anti-human IgG

Binder | EC50 [µg/mL]
B8 | 0.0155
B12 | 0.0277
B13 | 0.0289
B14 | 0.0291
B15 | 4.26
B16 | 0.0187
B17 | 0.118
B18 | 1.82
B9 | 0.0137
B19 | 0.0786
B20 | 1.47
B10 | 0.0602
B21 | 0.183
B11 | 0.289

Biological target: T2, Human hexa-histidine-TLR3 (human, UniProt O15455 24-703, limits assumed)
T2 construct: Captured by anti-His antibody on a CM5 chip; also called TLR3 (captured on the chip surface); not shown: hexa-histidine tag
Assay: Biacore 3000, hexa-histidine-TLR3 captured on anti-His antibody, mAb in solution, 25 C, 1:1 model

Binder | Kd [nM]
B7 | 0.316
B22 | 1.7
B8 | 0.65
B9 | 0.7
B10 | 3.4
B11 | 90

Biological target: T1, soluble human TLR3 extracellular domain
Assay: Biacore 2000, mAb captured on protein A, TLR3 in solution, 25 C, 1:1 model; mAb capture (mAb on protein A chip, TLR3 in solution)
Protocol: as §1

Binder | Kd [nM]
B7 | 1.2
